Experimental data reported in the supplement of paper PMC10126150.
± gives the standard deviation of the averaged measurements.

Tested on: ATP
Test: switch fluorescence ratio, 500 uM ATP over buffer (Cy3 cluster intensity, sum of 5 cycles each) (fold (ratio)); higher = stronger signal-on switching upon ATP binding; sequences stand for … in TCGTCGGCAGCGTCAGATGTGTATAAGAGACAGTTTTTTTTTTTTTTTTTTTTTTTTT…TC
Conditions: aptamer strand: ATP DNA aptamer (quencher-CACCTGGGGGAGTATTGCGGAGGAAGG + anchor), 100 nM annealed; ATP concentration: 500 uM
Outline: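 Clusters carrying Cy3-labelled switching strands on a modified Illumina MiSeq flow-cell were annealed to 100 nM quencher-labelled ATP aptamer and imaged in selection buffer. They were imaged again after 15 min with 500 uM ATP at 22 °C, over five buffer/ATP cycles with NaOH stripping and re-annealing in between. For each cluster, the fluorescence ratio is the summed Cy3 intensity of the target cycles divided by that of the buffer cycles, averaged per switch-domain sequence. Clusters outside 100-1000 RFU were left out.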
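Also: ATP exposure 15 min at 22 °C before imaging.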

| Sequence | switch fluorescence ratio |
| --- | --- |
| TTTGTTGCA | 1.02 ± 0.011 |
| GACGTGCGAC | 1.29 ± 0.079 |
| TTATAATATG | 0.9846 ± 0.0035 |
| TGTTAATAAC | 1 ± 0.052 |
| TTGGGTTGTG | 1.01 ± 0.041 |
| CTTTTAGAAC | 0.986 ± 0.027 |
| ATTTTTTACG | 1.02 ± 0.031 |
| TACCGGGGGG | 1.03 ± 0.029 |
| GGGATGTTGG | 1.006 ± 0.0071 |
| GCTGTCAGCG | 1.02 ± 0.024 |
| TGTAAAAAAA | 1.04 ± 0.044 |
| GGGAAAGTCG | 1 ± 0.036 |
| TAAAGAAAGA | 1.1 ± 0.23 |
| TTTTTGAGAG | 0.998 ± 0.032 |
| GCCGGGTTGC | 1.01 ± 0.013 |
| CCAGCATAAT | 1.41 ± 0.05 |
| CATAGTTCTG | 0.981 ± 0.028 |
| TTATGCCGGT | 1.02 ± 0.068 |
| AGTCCTTAGC | 1 ± 0.071 |
| GCGGTCCACG | 1.02 ± 0.022 |
| ACCGGCCAGC | 1.002 ± 0.004 |
| TGTTGTTATC | 0.974 ± 0.038 |
| TTTTCACTGG | 1.01 ± 0.017 |
| GGTGCATGAC | 1.39 ± 0.0037 |
| TAATGAGTGC | 0.997 ± 0.04 |

| Sequence | switch fluorescence ratio |
| --- | --- |
| CGGTGAGGGG | 0.989 ± 0.011 |
| GCAGTTTTGG | 0.992 ± 0.015 |
| TCAATTCTAC | 1.02 ± 0.041 |
| CGTGGTGGGT | 0.963 ± 0.025 |
| GAAAAAGGAG | 1 ± 0.018 |
| GTTGTAGCTG | 0.967 ± 0.015 |
| CTACCGCCTA | 1.39 ± 0.048 |
| TGGGTTTTTA | 0.9442 ± 0.0014 |
| TTACTGGGGC | 1.03 ± 0.03 |
| TGCAAGGTCG | 1.03 ± 0.031 |
| TTTTAAATGC | 1.07 ± 0.13 |
| GGTCAGTGTC | 0.981 ± 0.052 |
| TCGCTACCGA | 1.09 ± 0.04 |
| CACTTTTTTT | 1.01 ± 0.063 |
| GCTTTTGGCT | 0.992 ± 0.023 |
| ATAACCGTAC | 2.46 ± 0.27 |
| CAACGCGCGG | 0.995 ± 0.045 |
| CATTCTGACG | 1.18 ± 0.033 |
| CCGATTCGGG | 1.012 ± 0.0064 |
| AGGGGTAATT | 1.02 ± 0.024 |
| TTGGTTCTGG | 0.962 ± 0.038 |
| TTTTGTTTCA | 1 ± 0.022 |
| CAAAGAGCTT | 1 ± 0.028 |
| TTTTCGCTAT | 2.29 ± 1.6 |
| TTTTTCACGC | 1.04 ± 0.019 |

| Sequence | switch fluorescence ratio |
| --- | --- |
| GGTTGGTTTG | 0.99 ± 0.06 |
| AGTAACATTT | 0.974 ± 0.069 |
| CTAGGGGCTG | 0.946 ± 0.025 |
| TTGGCAACTT | 1.03 ± 0.03 |
| GGGGTCGTCA | 1.04 ± 0.0072 |
| TTAAGTTAGG | 1.02 ± 0.012 |
| GGGGGCCTGT | 1.01 ± 0.035 |
| GGCCCGATTT | 1.01 ± 0.024 |
| CGCAGATTCG | 1.01 ± 0.024 |
| GGTGATTTAT | 1.01 ± 0.029 |
| ATAACCCTTT | 1.12 ± 0.18 |
| TTTCTAAGTC | 0.9559 ± 0.006 |
| TCGGGCCAGG | 1.1 ± 0.071 |
| GATCCAGAAG | 1.017 ± 0.0036 |
| TACTACGTGC | 1.28 ± 0.019 |
| GAGGGACTAA | 0.9972 ± 0.0095 |
| TCGAGTATCT | 0.999 ± 0.019 |
| TTTTGGCGCA | 1.01 ± 0.0046 |
| AAATCCTATT | 0.982 ± 0.016 |
| AGAGTGTGGG | 1.02 ± 0.033 |
| ACATGGGGCG | 1 ± 0.054 |
| GAAGGGCATC | 0.989 ± 0.043 |
| TCTATCTAGA | 0.988 ± 0.014 |
| GTCTTTTTAA | 1.03 ± 0.032 |
| AATCAGACGG | 1.02 ± 0.021 |

| Sequence | switch fluorescence ratio |
| --- | --- |
| GGGGGAGGTC | 0.989 ± 0.021 |
| TTGGCGAGGA | 1.003 ± 0.0024 |
| AGTGTTACG | 1.01 ± 0.04 |
| GAAGTGATGG | 1.135 ± 0.008 |
| GTACGGGGAA | 1.04 ± 0.03 |
| TCCAGGGAAT | 1.04 ± 0.029 |
| CCTTATGGGA | 0.982 ± 0.026 |
| AACGGGTTAT | 0.995 ± 0.032 |
| AAAATATGCC | 1.02 ± 0.026 |
| CGACTGGAAC | 1.207 ± 0.008 |
| TCCCAACGGG | 1.011 ± 0.0036 |
| TATCTAGGTT | 1 ± 0.02 |
| CGTATAATAG | 1.02 ± 0.04 |
| TTAATATTTG | 1.01 ± 0.041 |
| CCCGATTTTT | 0.993 ± 0.017 |
| ATATATGAAA | 0.998 ± 0.024 |
| CGTGGGCGTG | 0.9797 ± 0.0013 |
| AGACAAGGGT | 1.01 ± 0.018 |
| GAAGTCTTAA | 1 ± 0.033 |
| TTCGAGAGTA | 1.05 ± 0.1 |
| AAGCGCGACG | 0.991 ± 0.027 |
| TTCGTCAACA | 1.03 ± 0.046 |
| CCGTATAATG | 0.98 ± 0.034 |
| GATTTGACGG | 0.983 ± 0.022 |
| TATCTCAACG | 1.045 ± 0.006 |

| Sequence | switch fluorescence ratio |
| --- | --- |
| GCGGCTGTGG | 0.9861 ± 0.008 |
| ACTTGCGGCT | 1 ± 0.05 |
| GTAAGTTGGG | 0.993 ± 0.024 |
| ACGAGGGTCA | 1.01 ± 0.06 |
| GCTTGGGGCA | 0.967 ± 0.024 |
| ATCGTGTGAG | 1.02 ± 0.015 |
| TGGGATGCAA | 1.04 ± 0.035 |
| GTGTTATGAT | 0.9574 ± 0.0068 |
| TTGAGGGGTG | 0.996 ± 0.037 |
| GAAAGTTTGG | 1.01 ± 0.017 |
| TAGCTGGCAC | 1.02 ± 0.0034 |
| CGGTTTTGTG | 0.962 ± 0.031 |
| CATAGAAAAT | 0.965 ± 0.0069 |
| TTTCTAATTT | 1.02 ± 0.015 |
| TTTGGGGCAT | 1.032 ± 0.0027 |
| GACGGGATCT | 1.042 ± 0.0092 |
| TTTCTTTTTT | 1 ± 0.024 |
| GCTTCTACAG | 1.047 ± 0.01 |
| TAGGAGGGT | 1.033 ± 0.0037 |
| AATGACGATG | 1.02 ± 0.029 |
| GCTGTTTGTA | 0.999 ± 0.03 |
| TGTCCTCAAT | 1.22 ± 0.02 |
| CGGGTGGAGG | 1.02 ± 0.018 |
| TGTATTTTTA | 1.01 ± 0.029 |
| GCTTTATGAA | 1.02 ± 0.054 |

| Sequence | switch fluorescence ratio |
| --- | --- |
| GGGCGCGTTT | 0.9623 ± 0.0072 |
| TGGAAGGGCT | 1.052 ± 0.0058 |
| TGGCCGATGG | 0.986 ± 0.052 |
| CTTTTTATGT | 0.96 ± 0.016 |
| CTTGGGGATC | 0.979 ± 0.013 |
| ATTATTAAGT | 0.987 ± 0.025 |
| TTCACACTA | 1.07 ± 0.044 |
| TGGCCCTTGG | 1 ± 0.054 |
| TGAAATATGT | 0.987 ± 0.04 |
| AAAAAAAGGA | 1.01 ± 0.021 |
| GCATTAGGGC | 1.07 ± 0.14 |
| TGTTAGATTT | 1.05 ± 0.19 |
| CGTCTAGAA | 0.963 ± 0.048 |
| ATTAAGGGGA | 1.04 ± 0.049 |
| AAGCCCGAGG | 0.981 ± 0.02 |
| CCTTGTAGGT | 1.02 ± 0.038 |
| GGTGGGGCCC | 0.983 ± 0.032 |
| GTACTTGGCT | 1.016 ± 0.0023 |
| GGTTTATTGT | 0.993 ± 0.056 |
| GTTGATGTAG | 0.984 ± 0.028 |
| GACAGGTTGA | 0.993 ± 0.036 |
| ATTAGTAG | 1.022 ± 0.0095 |
| AAGGGATAGG | 0.9844 ± 0.001 |
| CAAGGGGGGC | 0.972 ± 0.03 |
| GGGATGAACT | 1.01 ± 0.013 |

| Sequence | switch fluorescence ratio |
| --- | --- |
| GTTTTGATTA | 0.973 ± 0.017 |
| TTTCTATTTT | 1.02 ± 0.066 |
| CAAATACGAT | 1.05 ± 0.04 |
| GTCTGAAGGG | 1.0152 ± 0.0004 |
| ATGTATGTAA | 1.01 ± 0.018 |
| TAAGAGGGTC | 0.999 ± 0.041 |
| ATTTCGCCCG | 1.07 ± 0.037 |
| GCGCGCTAAG | 0.977 ± 0.035 |
| GGCTTTTTGG | 0.99 ± 0.02 |
| GCTTTTAGGT | 0.968 ± 0.06 |
| TGGAGGTTAG | 1.02 ± 0.034 |
| TGTATATTTT | 0.98 ± 0.021 |
| ACTAAAGGGG | 1.04 ± 0.021 |
| AAGAGTTGTA | 1.01 ± 0.019 |
| TTAAGGATA | 1.01 ± 0.036 |
| TAAAAATTGC | 1.02 ± 0.048 |
| GTGTGAGCGG | 0.9901 ± 0.0052 |
| GGACGTTGGT | 1.02 ± 0.022 |
| AAGATTATGG | 0.984 ± 0.035 |
| TTTTGGGCCC | 1.04 ± 0.076 |
| CGACACGCTG | 1.05 ± 0.058 |
| GATTTAATCC | 0.974 ± 0.032 |
| TTACTCATTT | 1.017 ± 0.0018 |
| TTCATGGTGG | 1.01 ± 0.052 |
| TTGTTGGGAT | 0.996 ± 0.028 |

| Sequence | switch fluorescence ratio |
| --- | --- |
| ATTGGGGCGT | 0.977 ± 0.016 |
| TATAGTGAGG | 1.0603 ± 0.001 |
| GGTCGGGC | 0.969 ± 0.03 |
| GAGCTCTTTC | 1.01 ± 0.017 |
| TAGGGTGCTG | 1.09 ± 0.16 |
| GGTTACCTTC | 1.356 ± 0.0068 |
| AATATATTGG | 1.028 ± 0.0042 |
| ATTGATTTCT | 1.012 ± 0.006 |
| ACTGACAGCG | 1.0189 ± 0.00036 |
| TTATCACACT | 1.02 ± 0.043 |
| GCTCGGGGTA | 1.02 ± 0.013 |
| GTTGTAAGAT | 0.981 ± 0.028 |
| TGCCACAGCA | 1.02 ± 0.025 |
| TTGAGATCCT | 1.027 ± 0.0084 |
| TTAATTTACT | 1.08 ± 0.043 |
| CTTTTCTGAT | 0.993 ± 0.04 |
| ACTCAGATTG | 1.05 ± 0.056 |
| ATGTAGGCAG | 0.961 ± 0.029 |
| TAATGTTCTC | 1.02 ± 0.011 |
| CCCAGGCGGA | 1.65 ± 0.78 |
| CGTATCATTG | 0.997 ± 0.042 |
| CAGCCGGATG | 1.02 ± 0.028 |
| GTGGATTTTT | 0.991 ± 0.015 |
| TCGTCCCTGT | 1.074 ± 0.003 |
| GGATTTGGTA | 0.978 ± 0.032 |
